Measurements published in article PMC7807754, “A novel protein encoded by circular SMO RNA is essential for Hedgehog signaling activation and glioblastoma tumorigenicity” (Genome Biology, 2021).

Target: T1, 6xHis-SMO (human, UniProt Q99835 28-787)
T1 construct: smoothened (SMO), human; The plasmid for the 6xHis-tagged protein is not described; source: 293T, transfected, purified (HisPur Ni-NTA Purification Kit)
Test: co-IP; in vitro IP with proteins purified from 293T: GFP or GFP-193a.a. incubated with 6xHis-SMO for 4 h at 4 °C, immunoprecipitation overnight at 4 °C, protein A/G agarose, washed with PBST 5 times, western blotting
Conditions: both partners purified

T1 sequence (Q99835 28-787): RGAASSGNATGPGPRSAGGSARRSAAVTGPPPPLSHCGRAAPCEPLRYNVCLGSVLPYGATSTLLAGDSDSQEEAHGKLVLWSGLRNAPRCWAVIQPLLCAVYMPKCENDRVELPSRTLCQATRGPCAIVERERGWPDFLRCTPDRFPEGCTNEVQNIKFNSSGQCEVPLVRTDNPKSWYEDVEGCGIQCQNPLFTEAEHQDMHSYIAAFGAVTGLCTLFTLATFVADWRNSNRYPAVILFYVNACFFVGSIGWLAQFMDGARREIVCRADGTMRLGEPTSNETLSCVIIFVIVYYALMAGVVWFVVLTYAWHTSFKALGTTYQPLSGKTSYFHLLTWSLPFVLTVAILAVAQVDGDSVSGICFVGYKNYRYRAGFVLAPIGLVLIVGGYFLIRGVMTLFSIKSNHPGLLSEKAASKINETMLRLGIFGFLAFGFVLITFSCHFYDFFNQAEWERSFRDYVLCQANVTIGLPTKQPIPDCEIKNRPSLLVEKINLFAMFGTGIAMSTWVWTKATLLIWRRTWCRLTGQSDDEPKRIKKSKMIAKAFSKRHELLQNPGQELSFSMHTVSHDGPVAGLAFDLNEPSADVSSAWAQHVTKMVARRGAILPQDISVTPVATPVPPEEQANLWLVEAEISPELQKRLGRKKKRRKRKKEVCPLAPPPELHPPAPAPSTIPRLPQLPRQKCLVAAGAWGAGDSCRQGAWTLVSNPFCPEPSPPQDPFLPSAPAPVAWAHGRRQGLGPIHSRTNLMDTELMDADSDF

binding result: binds
B1: GFP-SMO-193a.a. (natural protein, human)
chain: MHSYIAAFGAVTGLCTLFTLATFVADWRNSNRYPAVILFYVNACFFVGSIGWLAQFMDGARREIVCRADGTMRLGEPTSNETLSCVIIFVIVYYALMAGVVWFVVLTYAWHTSFKALGTTYQPLSGKTSYFHLLTWSLPFVLTVAILAVAQVDGDSVSGICFVGYKNYRYRAGFVLAPIGLVLIVGGYFLIRE
notes: SMO (smoothened), human, amino acids 230-421; the open reading frame of circ-SMO; extra Glu at the C-terminal, not part of linear SMO; The plasmid for the GFP-tagged protein is not described; source: 293T, transfected, purified (anti-GFP antibody, Catch and Release v2.0 Reversible Immunoprecipitation System)
